Experimental data as given in the Human Domainome abundance scans (Beltran et al. 2025).

B1: Transcription factor SOX-11, residues 50 to 117; numbered along this chain, P35716 (parent)
chain: KRPMNAFMVWSKIERRKIMEQSPDMHNAEISKRLGKRWKMLKDSEKIPFIREAERLRLKHMADYPDYK

Variants of: B1
Assay: abundance fitness (aPCA) (normalised: wild type 0, dead -1); higher = more abundant; growth selection in yeast, the domain comes from the species named
Conditions: Homo sapiens

Abundance fitness of substitutions, site by site:
R51: D -0.129; G -0.606; L -0.125; M 0.141; K -0.054; C -0.304; Q 0.189; P -0.473; A -0.069; Y -0.238; T -0.29; V -0.075; S -0.495; H -0.289; F -0.411; I -0.104
I47: C -0.567; E 0.259; L 0.162; T -0.051; H -0.46; S -0.279; P -1.04; N -0.529; G -0.259; M 0.101; V -0.097; D -0.107; A 0.061; W -0.176; F -0.23; K -0.198
P48: L -0.572; F -0.285; Q -0.24; G -0.384; R -0.604; S -0.617; A -0.664; W -0.577; C -0.634; E -0.386; H -0.355; D -0.656; T -0.719; N -0.598; V -0.261; I -0.43; K -0.69
I50: H -0.005; D -0.425; N -0.323; E 0.248; W -0.437; P -0.617; S -0.509; F -0.034; L -0.161; R -0.01; G -0.555; M 0.013; K -0.228; C -0.59; Q -0.007; A -0.287
S44: W -0.037; H -0.053; T -0.215; F -0.132; M -0.362; K -0.492; I 0.005; Q 0.585; N -0.29; P -0.752; G -0.208; E 0.274; D 0.169; Y -0.024; R -0.24
E54: C -0.42; G -0.714; D -0.323; A -0.425; F -0.762
A53: P -0.478; D -0.961; M -0.33; H -0.741; L -0.747; N -0.474; W -0.91; F -0.64; E -0.622; S -0.506; V -0.749; C -0.728; K -1.12; Y -0.813; I -0.709; T -0.649; R -0.77; G -0.946
E52: M -0.396; C -0.515; H -0.564; I -0.278; W -0.605; V -0.404; T -0.397; F -0.546; R -0.735; Q -1.04; S -0.785; P -0.982; Y -0.598; A -0.462; N -0.793; D -0.438; K -0.577
E45: S -0.828; M -0.314; K -0.667; T -0.942; C -0.548; I -0.336; H -0.45; Y -0.395; V -0.425; G -1.04; F -0.297; N -0.439; W -0.447; P -0.918; Q -0.282; R -0.891; L -0.221
K46: W -0.995; M -0.85; G -0.671; T -0.619; C -0.848; D -0.777; V -0.647; F -0.987; E -0.74; P -0.844; I -0.595; L -0.982; A -0.871; Y -0.968; H -0.718; S -0.996
F49: S -0.566; Y 0.048; E -0.792; M -0.301; N -0.881; V -0.635; G -0.739; R -0.767; L -0.731; H -0.739; A -0.761; T -0.558; W -0.256; I -0.694
